Reference: publication PMC2700855 (Proteins, 2009)

T1: RFXAP (UniProt O00287 1-272)
T1 sequence (looked up): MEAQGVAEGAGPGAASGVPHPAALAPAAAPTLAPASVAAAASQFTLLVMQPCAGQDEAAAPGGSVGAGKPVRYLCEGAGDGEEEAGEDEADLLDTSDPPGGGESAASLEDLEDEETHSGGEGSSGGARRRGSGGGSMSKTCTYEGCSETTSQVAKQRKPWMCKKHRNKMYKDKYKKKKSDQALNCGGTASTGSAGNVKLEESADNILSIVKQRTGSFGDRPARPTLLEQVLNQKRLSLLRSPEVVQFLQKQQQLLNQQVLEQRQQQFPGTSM

B1: RFX5(187-265) (domain or fragment, UniProt P48382 187-265, looked up)
chain: EMGPEVTPAPRDELVEAACALTCDWAERILKRSFSSIVEVARFLLQQHLISARSAHAHVLKAMGLAEEDEHAPRERSSK
B2: RFX5(25-90) (domain or fragment, UniProt P48382 25-90, looked up)
chain: GEPTTLLQRLRGTISKAVQNKVEGILQDVQKFSDNDKLYLYLQLPSGPTTGDKSSEPSTLSNEEYM
B3: RFXB(88-260) (domain or fragment, UniProt O14593 88-260, looked up)
chain: TLDSLSIHQLAAQGELDQLKEHLRKGDNLVNKPDERGFTPLIWASAFGEIETVRFLLEWGADPHILAKERESALSLASTGGYTDIVGLLLERDVDINIYDWNGGTPLLYAVRGNHVKCVEALLARGADLTTEADSGYTPMDLAVALGYRKVQQVIENHILKLFQSNLVPADPE
B4: RFX5(1-90) (domain or fragment, UniProt P48382 1-90, looked up)
chain: MAEDEPDAKSPKTGGRAPPGGAEAGEPTTLLQRLRGTISKAVQNKVEGILQDVQKFSDNDKLYLYLQLPSGPTTGDKSSEPSTLSNEEYM
B5: RFXB (natural protein, UniProt O14593 1-260, looked up)
chain: MELTQPAEDLIQTQQTPASELGDPEDPGEEAADGSDTVVLSLFPCTPEPVNPEPDASVSSPQAGSSLKHSTTLTNRQRGNEVSALPATLDSLSIHQLAAQGELDQLKEHLRKGDNLVNKPDERGFTPLIWASAFGEIETVRFLLEWGADPHILAKERESALSLASTGGYTDIVGLLLERDVDINIYDWNGGTPLLYAVRGNHVKCVEALLARGADLTTEADSGYTPMDLAVALGYRKVQQVIENHILKLFQSNLVPADPE
B6: RFX5(88-330) (domain or fragment, UniProt P48382 88-330, looked up)
chain: EYMYAYRWIRNHLEEHTDTCLPKQSVYDAYRKYCESLACCRPLSTANFGKIIREIFPDIKARRLGGRGQSKYCYSGIRRKTLVSMPPLPGLDLKGSESPEMGPEVTPAPRDELVEAACALTCDWAERILKRSFSSIVEVARFLLQQHLISARSAHAHVLKAMGLAEEDEHAPRERSSKPKNGLENPEGGAHKKPERLAQPPKDLEARTGAGPLARGERKKSVVESSAPGANNLQVNALVARLP
B7: RFX5(1-330) (domain or fragment, UniProt P48382 1-330, looked up)
chain: MAEDEPDAKSPKTGGRAPPGGAEAGEPTTLLQRLRGTISKAVQNKVEGILQDVQKFSDNDKLYLYLQLPSGPTTGDKSSEPSTLSNEEYMYAYRWIRNHLEEHTDTCLPKQSVYDAYRKYCESLACCRPLSTANFGKIIREIFPDIKARRLGGRGQSKYCYSGIRRKTLVSMPPLPGLDLKGSESPEMGPEVTPAPRDELVEAACALTCDWAERILKRSFSSIVEVARFLLQQHLISARSAHAHVLKAMGLAEEDEHAPRERSSKPKNGLENPEGGAHKKPERLAQPPKDLEARTGAGPLARGERKKSVVESSAPGANNLQVNALVARLP
B8: RFXAP(215-272,F217Y) (domain or fragment, UniProt O00287 215-272, looked up)
chain: GSYGDRPARPTLLEQVLNQKRLSLLRSPEVVQFLQKQQQLLNQQVLEQRQQQFPGTSM

Columns and labels:
SEC-MALS = target: the molecule itself; experiment: SEC-MALS
cross-linking [1] = target: the molecule itself; experiment: cross-linking
cross-linking [2] = target: the molecule itself; experiment: cross-linking; remark: listed apart in the source
RFXAP(215-272,F217Y) = target: B8; experiment: SEC-MALS
[3] = target: RFX5(25-90)2•RFXAP(215-272) complex (UniProt P48382); experiment: SEC-MALS; details: scale: RFXB(88-260) per RFX5(25-90)2•RFXAP(215-272)
RFX5(88-330) = target: B6; experiment: SEC
[4] = target: RFX5(25-90)2•RFXAP(215-272) complex (UniProt P48382); experiment: ITC
RFXAP = target: T1, RFXAP; experiment: SEC
RFX5(1-330) = target: B7; experiment: SEC
RFXB = target: B5; experiment: SEC
SEC = target: the molecule itself; experiment: SEC
RFXB(88-260) = target: B3; experiment: SEC-MALS
RFX5(25-90) = target: B2; experiment: SEC

Binder: B1
stoichiometry N (SEC-MALS): 2

Binder: B2
stoichiometry N (cross-linking [1]): 4
stoichiometry N (cross-linking [2]): 2
stoichiometry N (RFXAP(215-272,F217Y)): 2 RFX5(25-90) per RFXAP(215-272)

Binder: B3
stoichiometry N [3]: 1
binding result (RFX5(88-330)): binds
Kd [4]: 75.5 nM
stoichiometry N [4]: 1.02

Binder: B4
binding result (RFXAP): binds

Binder: B5
binding result (RFX5(1-330)): binds
binding result (RFXAP): binds

Binder: B6
binding result (RFXB): binds

Binder: B7
stoichiometry N (SEC): 2

Binder: B8
binding result (RFXB(88-260)): binds
binding result (RFX5(25-90)): binds
